The values that follow come from patent publication US12161669 (UMC UTRECHT HOLDING B V, dated 2024).

The data set deals with the molecule itself. The data set is described as follows: flow cytometry FRET between anti-CD277-PE (donor) and anti-CD277-DyLight 680 (acceptor) on HEK 293 cells, medium or pamidronate (ABP).

B1: CD277 (butyrophilin BTN3A1) expressed on cells (Daudi, HEK 293, EBV-LCL 48) (receptor)
chain: not shown
notes: whole, on cells; The anti-CD277 antibodies may also see other BTN3 isoforms; also called CD277J
Take B1: the binding result was “binds”.
